What is called Kd is a measure of binding affinity in units of concentration.

Assay [1] addresses Protein A (Staphylococcus aureus) (UniProt P38507). In words: LSPR (localized surface plasmon resonance, reflectance spectroscopy); PrA physically adsorbed on the nanostructured gold layer; analyte flown over in PBS pH 7.4, 0.57 ml/min; equilibrium shifts of three sensors fitted to a Langmuir isotherm.
Assay [2] shares this target. In words: LSPR (localized surface plasmon resonance, reflectance spectroscopy); PrA covalently coupled to the nanostructured gold layer via cysteamine/glutardialdehyde; analyte flown over in PBS pH 7.4, 0.57 ml/min; equilibrium shifts of three sensors fitted to a Langmuir isotherm.
For assay [3], the target named is T1, asialofetuin (UniProt P12763 19-359, glycoprotein presenting terminal galactose residues).
T1 construct: asialofetuin (desialylated fetuin), printed mass 48 kDa; Physically adsorbed on the gold sensor; also called ASF; source: bought: Sigma
T1 sequence (looked up): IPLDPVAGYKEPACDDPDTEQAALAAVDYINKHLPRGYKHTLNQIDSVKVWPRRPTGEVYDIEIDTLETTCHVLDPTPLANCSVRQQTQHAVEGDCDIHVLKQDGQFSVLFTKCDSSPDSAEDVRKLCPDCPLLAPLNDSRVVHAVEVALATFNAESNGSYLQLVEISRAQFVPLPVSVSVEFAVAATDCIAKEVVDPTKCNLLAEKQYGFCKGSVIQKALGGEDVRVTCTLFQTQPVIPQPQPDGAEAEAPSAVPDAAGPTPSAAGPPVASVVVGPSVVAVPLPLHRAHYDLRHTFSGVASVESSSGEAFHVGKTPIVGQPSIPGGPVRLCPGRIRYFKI
In words: LSPR (localized surface plasmon resonance, reflectance spectroscopy); ASF physically adsorbed on the nanostructured gold layer; analyte in lectin buffer (10 mM HEPES, 150 mM NaCl, 0.1 mM CaCl2, pH 7.5); equilibrium shifts of three sensors fitted to a Langmuir isotherm. As to conditions: both partners purified.

As to “immunoglobulin G (IgG, 150 kDa) from rabbit (antibody)”, the Kd in assay [1] is 140 nM; in assay [2] it was 150 nM.

B1: Erythrina cristagalli lectin (natural protein, UniProt P83410 1-239, looked up)
chain: VETISFSFSEFEPGNDNLTLQGAALITQSGVLQLTKINQNGMPAWDSTGRTLYTKPVHMWDSTTGTVASFETRFSFSIEQPYTRPLPADGLVFFMGPTKSKPAQGYGYLGVFNNSKQDNSYQTLAVEFDTFSNPWDPPQVPHIGIDVNSIRSIKTQPFQLDNGQVANVVIKYDAPSKILHVVLVYPSSGAIYTIAEIVDVKQVLPDWVDVGLSGATGAQRDAAETHDVYSWSFQASLPE
notes: lectin of the plant Erythrina cristagalli; printed mass 54 kDa; The printed 54 kDa probably means a dimer of the lectin chain; also called ECL; source: bought: Vector Laboratories via BIOZOL Diagnostica
B1: the Kd in assay [3] was 490 nM.

These data come from PMC7214386, “Plasmonic biosensors fabricated by galvanic displacement reactions for monitoring biomolecular interactions in real time” (Analytical and Bioanalytical Chemistry, 2020).
